Laboratory results taken from the Human Domainome abundance scans (Beltran et al. 2025).
± gives the uncertainty stated by the source.

Assay: abundance fitness (aPCA) (normalised: wild type 0, dead -1); higher = more abundant; growth selection in yeast, the domain comes from the species named
Conditions: Homo sapiens

Going from “NEDD4-like E3 ubiquitin-protein ligase WWP2 P447S, O00308” to “NEDD4-like E3 ubiquitin-protein ligase WWP2 P447T, O00308”, the abundance fitness falls from -0.332 ± 0.046 to -0.541 ± 0.067.

“NEDD4-like E3 ubiquitin-protein ligase WWP2 P447V, O00308” and “NEDD4-like E3 ubiquitin-protein ligase WWP2 P447W, O00308” are within error of each other in abundance fitness: -0.633 ± 0.04 for the first, -0.659 ± 0.07 for the second.

Compared with “NEDD4-like E3 ubiquitin-protein ligase WWP2 P447Y, O00308”, “NEDD4-like E3 ubiquitin-protein ligase WWP2 P448A, O00308” is higher in abundance fitness: -0.5 ± 0.081 for the first, 0.008 ± 0.044 for the second.

Going from “NEDD4-like E3 ubiquitin-protein ligase WWP2 P448C, O00308” to “NEDD4-like E3 ubiquitin-protein ligase WWP2 P448D, O00308”, the abundance fitness rises from -0.216 ± 0.074 to 0.09 ± 0.059.

“NEDD4-like E3 ubiquitin-protein ligase WWP2 P448E, O00308” and “NEDD4-like E3 ubiquitin-protein ligase WWP2 P448F, O00308” are within error of each other in abundance fitness: 0.045 ± 0.062 for the first, 0.015 ± 0.04 for the second.

“NEDD4-like E3 ubiquitin-protein ligase WWP2 P448G, O00308” and “NEDD4-like E3 ubiquitin-protein ligase WWP2 P448H, O00308” are within error of each other in abundance fitness: -0.046 ± 0.054 for the first, 0.043 ± 0.046 for the second.

Going from “NEDD4-like E3 ubiquitin-protein ligase WWP2 P448I, O00308” to “NEDD4-like E3 ubiquitin-protein ligase WWP2 P448K, O00308”, the abundance fitness rises from -0.13 ± 0.071 to 0.108 ± 0.067.

“NEDD4-like E3 ubiquitin-protein ligase WWP2 P448L, O00308” and “NEDD4-like E3 ubiquitin-protein ligase WWP2 P448M, O00308” are within error of each other in abundance fitness: -0.013 ± 0.038 for the first, 0.088 ± 0.068 for the second.

“NEDD4-like E3 ubiquitin-protein ligase WWP2 P448N, O00308” and “NEDD4-like E3 ubiquitin-protein ligase WWP2 P448Q, O00308” are within error of each other in abundance fitness: 0.071 ± 0.072 for the first, 0.029 ± 0.054 for the second.

“NEDD4-like E3 ubiquitin-protein ligase WWP2 P448R, O00308” and “NEDD4-like E3 ubiquitin-protein ligase WWP2 P448S, O00308” are within error of each other in abundance fitness: -0.033 ± 0.047 for the first, -0.001 ± 0.037 for the second.

“NEDD4-like E3 ubiquitin-protein ligase WWP2 P448T, O00308” and “NEDD4-like E3 ubiquitin-protein ligase WWP2 P448V, O00308” are within error of each other in abundance fitness: 0.001 ± 0.05 for the first, 0.023 ± 0.055 for the second.

“NEDD4-like E3 ubiquitin-protein ligase WWP2 P448W, O00308” and “NEDD4-like E3 ubiquitin-protein ligase WWP2 P448Y, O00308” are within error of each other in abundance fitness: -0.109 ± 0.062 for the first, -0.149 ± 0.056 for the second.

First: NEDD4-like E3 ubiquitin-protein ligase WWP2 P475A, O00308
Second: NEDD4-like E3 ubiquitin-protein ligase WWP2 P475C, O00308
The abundance fitness of the first is higher: -0.837 ± 0.037 for the first, -1.06 ± 0.16 for the second.

“NEDD4-like E3 ubiquitin-protein ligase WWP2 P475D, O00308” and “NEDD4-like E3 ubiquitin-protein ligase WWP2 P475E, O00308” are within error of each other in abundance fitness: -0.867 ± 0.14 for the first, -0.785 ± 0.15 for the second.

“NEDD4-like E3 ubiquitin-protein ligase WWP2 P475F, O00308” and “NEDD4-like E3 ubiquitin-protein ligase WWP2 P475G, O00308” are within error of each other in abundance fitness: -0.88 ± 0.1 for the first, -1 ± 0.042 for the second.

Compared with “NEDD4-like E3 ubiquitin-protein ligase WWP2 P475H, O00308”, “NEDD4-like E3 ubiquitin-protein ligase WWP2 P475I, O00308” is higher in abundance fitness: -0.813 ± 0.15 for the first, -0.523 ± 0.11 for the second.

Going from “NEDD4-like E3 ubiquitin-protein ligase WWP2 P475K, O00308” to “NEDD4-like E3 ubiquitin-protein ligase WWP2 P475L, O00308”, the abundance fitness rises from -1.24 ± 0.27 to -0.876 ± 0.04.

Going from “NEDD4-like E3 ubiquitin-protein ligase WWP2 P475M, O00308” to “NEDD4-like E3 ubiquitin-protein ligase WWP2 P475N, O00308”, the abundance fitness falls from -0.574 ± 0.062 to -0.941 ± 0.13.

“NEDD4-like E3 ubiquitin-protein ligase WWP2 P475Q, O00308” and “NEDD4-like E3 ubiquitin-protein ligase WWP2 P475R, O00308” are within error of each other in abundance fitness: -0.836 ± 0.11 for the first, -0.933 ± 0.041 for the second.

Compared with “NEDD4-like E3 ubiquitin-protein ligase WWP2 P475S, O00308”, “NEDD4-like E3 ubiquitin-protein ligase WWP2 P475T, O00308” is lower in abundance fitness: -0.852 ± 0.054 for the first, -1.36 ± 0.2 for the second.

Compared with “NEDD4-like E3 ubiquitin-protein ligase WWP2 P475V, O00308”, “NEDD4-like E3 ubiquitin-protein ligase WWP2 P475W, O00308” is lower in abundance fitness: -0.631 ± 0.038 for the first, -0.829 ± 0.067 for the second.

Compared with “NEDD4-like E3 ubiquitin-protein ligase WWP2 P475Y, O00308”, “NEDD4-like E3 ubiquitin-protein ligase WWP2 P477A, O00308” is higher in abundance fitness: -0.984 ± 0.15 for the first, 0.076 ± 0.052 for the second.

“NEDD4-like E3 ubiquitin-protein ligase WWP2 P477C, O00308” and “NEDD4-like E3 ubiquitin-protein ligase WWP2 P477D, O00308” are within error of each other in abundance fitness: -0.084 ± 0.066 for the first, -0.009 ± 0.059 for the second.

“NEDD4-like E3 ubiquitin-protein ligase WWP2 P477E, O00308” and “NEDD4-like E3 ubiquitin-protein ligase WWP2 P477F, O00308” are within error of each other in abundance fitness: 0.001 ± 0.05 for the first, -0.091 ± 0.073 for the second.

First: NEDD4-like E3 ubiquitin-protein ligase WWP2 P477G, O00308
Second: NEDD4-like E3 ubiquitin-protein ligase WWP2 P477I, O00308
The abundance fitness of the first is lower: -0.019 ± 0.031 for the first, 0.13 ± 0.075 for the second.

“NEDD4-like E3 ubiquitin-protein ligase WWP2 P477K, O00308” and “NEDD4-like E3 ubiquitin-protein ligase WWP2 P477L, O00308” are within error of each other in abundance fitness: -0.037 ± 0.052 for the first, -0.038 ± 0.034 for the second.

“NEDD4-like E3 ubiquitin-protein ligase WWP2 P477M, O00308” and “NEDD4-like E3 ubiquitin-protein ligase WWP2 P477N, O00308” are within error of each other in abundance fitness: -0.011 ± 0.05 for the first, -0.081 ± 0.053 for the second.

Going from “NEDD4-like E3 ubiquitin-protein ligase WWP2 P477Q, O00308” to “NEDD4-like E3 ubiquitin-protein ligase WWP2 P477S, O00308”, the abundance fitness rises from -0.394 ± 0.1 to -0.02 ± 0.037.

Going from “NEDD4-like E3 ubiquitin-protein ligase WWP2 P477T, O00308” to “NEDD4-like E3 ubiquitin-protein ligase WWP2 P477V, O00308”, the abundance fitness rises from -0.215 ± 0.068 to 0.037 ± 0.034.

“NEDD4-like E3 ubiquitin-protein ligase WWP2 P477W, O00308” and “NEDD4-like E3 ubiquitin-protein ligase WWP2 P477Y, O00308” are within error of each other in abundance fitness: -0.138 ± 0.048 for the first, -0.145 ± 0.063 for the second.

First: NEDD4-like E3 ubiquitin-protein ligase WWP2 P488A, O00308
Second: NEDD4-like E3 ubiquitin-protein ligase WWP2 P488C, O00308
The abundance fitness of the first is lower: -0.31 ± 0.037 for the first, -0.049 ± 0.058 for the second.

“NEDD4-like E3 ubiquitin-protein ligase WWP2 P488D, O00308” and “NEDD4-like E3 ubiquitin-protein ligase WWP2 P488E, O00308” are within error of each other in abundance fitness: 0.033 ± 0.053 for the first, 0.018 ± 0.055 for the second.

“NEDD4-like E3 ubiquitin-protein ligase WWP2 P488F, O00308” and “NEDD4-like E3 ubiquitin-protein ligase WWP2 P488G, O00308” are within error of each other in abundance fitness: -0.127 ± 0.064 for the first, -0.032 ± 0.04 for the second.

Compared with “NEDD4-like E3 ubiquitin-protein ligase WWP2 P488H, O00308”, “NEDD4-like E3 ubiquitin-protein ligase WWP2 P488I, O00308” is lower in abundance fitness: 0.024 ± 0.062 for the first, -0.163 ± 0.069 for the second.

“NEDD4-like E3 ubiquitin-protein ligase WWP2 P488K, O00308” and “NEDD4-like E3 ubiquitin-protein ligase WWP2 P488L, O00308” are within error of each other in abundance fitness: -0.04 ± 0.053 for the first, -0.063 ± 0.038 for the second.

“NEDD4-like E3 ubiquitin-protein ligase WWP2 P488M, O00308” and “NEDD4-like E3 ubiquitin-protein ligase WWP2 P488N, O00308” are within error of each other in abundance fitness: -0.018 ± 0.057 for the first, 0.021 ± 0.051 for the second.

“NEDD4-like E3 ubiquitin-protein ligase WWP2 P488Q, O00308” and “NEDD4-like E3 ubiquitin-protein ligase WWP2 P488T, O00308” are within error of each other in abundance fitness: -0.028 ± 0.033 for the first, -0.044 ± 0.048 for the second.

Compared with “NEDD4-like E3 ubiquitin-protein ligase WWP2 P488V, O00308”, “NEDD4-like E3 ubiquitin-protein ligase WWP2 P488W, O00308” is lower in abundance fitness: -0.037 ± 0.042 for the first, -0.144 ± 0.048 for the second.

“NEDD4-like E3 ubiquitin-protein ligase WWP2 P488Y, O00308” and “NEDD4-like E3 ubiquitin-protein ligase WWP2 Q442A, O00308” are within error of each other in abundance fitness: -0.066 ± 0.043 for the first, -0.07 ± 0.035 for the second.

“NEDD4-like E3 ubiquitin-protein ligase WWP2 Q442C, O00308” and “NEDD4-like E3 ubiquitin-protein ligase WWP2 Q442D, O00308” are within error of each other in abundance fitness: 0.121 ± 0.079 for the first, 0.079 ± 0.066 for the second.

“NEDD4-like E3 ubiquitin-protein ligase WWP2 Q442E, O00308” and “NEDD4-like E3 ubiquitin-protein ligase WWP2 Q442F, O00308” are within error of each other in abundance fitness: 0.069 ± 0.04 for the first, 0.128 ± 0.059 for the second.

“NEDD4-like E3 ubiquitin-protein ligase WWP2 Q442G, O00308” and “NEDD4-like E3 ubiquitin-protein ligase WWP2 Q442H, O00308” are within error of each other in abundance fitness: -0.071 ± 0.052 for the first, -0.108 ± 0.086 for the second.

Going from “NEDD4-like E3 ubiquitin-protein ligase WWP2 Q442K, O00308” to “NEDD4-like E3 ubiquitin-protein ligase WWP2 Q442L, O00308”, the abundance fitness falls from 0.195 ± 0.069 to -0.058 ± 0.045.

“NEDD4-like E3 ubiquitin-protein ligase WWP2 Q442M, O00308” and “NEDD4-like E3 ubiquitin-protein ligase WWP2 Q442N, O00308” are within error of each other in abundance fitness: 0.038 ± 0.078 for the first, 0.097 ± 0.086 for the second.
